Biological target: 重组蛋白SUMO-IgT CH1-CH2 (recombinant grass carp IgT heavy chain constant region CH1-CH2 domains fused to SUMO, from E. coli) (草鱼 (Ctenopharyngodon idella))
Assay: titre of the antibody purified from ascites; assay not given, taken as ELISA on SUMO-IgT CH1-CH2

效价 (titre) (dilution (1:x)): 64000
B1: 鼠抗草鱼IgT单克隆抗体 (mouse anti-grass carp IgT monoclonal antibody, secreted by hybridoma cell line IgT-6H6G11, CCTCC NO: C202288) (antibody, IgG2a, V domains shown)
VH: QVQLVETGGGLVRPGNSLKLSCVTSGFTFSNYRMHWLRQPPGKRLEWIAVITVKSDNYRARYAESVKGRFTISRDDSKSSVYLQMNRLREEDTATYFCSREGPYYGNWVAMDYWGQGTSVTVSS
VL: DVVLTQSPATLSVTPGDRVSLSCRASQSISNYLHWYQQKSHESPRLLIKYASQSISGIPSRFSGSGSGTGFTLSINSVETEDFGMYFCQQSHSWPYTFGGGTKLEIK

Reference: patent CN116041526A
